Reference: the nanobody polyreactivity screen of Harvey et al. (2022)

Experiment: yeast display, Sf9 membrane polyspecificity reagent, FACS + sequencing; frameworks hold sequencing errors
Outline: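 Using colony PCR, genes from sorted yeast display clones were amplified, then sequenced on MiSeq at 2 × 250 and filtered by CDR length. The clones had been stained with 10% biotinylated, detergent-solubilized Sf9 membrane reagent for 1 hour at 4 °C and sorted by FACS into low and high (top ~1%) gates on anti-HA and streptavidin fluorescence. Polyreactivity labels come from the gate of origin.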
With “QVKLVESGGGLVQAGGSLRLSCAASGFTIANYAMGWYRQAPGKERELVAAITTSGSTYYADSVKGRFTISRDNAKNTVYLQMNSLKPEDTAVYYCAVSIWVWFASGFDYWGQGTQVTVSS” the “polyreactivity (PSR sort gate)” value was “high polyreactivity”.
In the case of “QVQLVESGAGLVQAGGSLRLSCPASGYIFWWTALGWSRQQPGKERELVAGISWSGSTTYYADSVKGRFTISRDNAKNTVYLQMNSLNPEDTAVYYCNAADITLYDYDYWGQGTQVTVSS”, the “polyreactivity (PSR sort gate)” value is reported as “low polyreactivity”.
In the case of “QVQLVESGGGLVQAGGSLRLSCAASGSIFEYNAMGWYRQAPGKERELVAAISWSSGTTYYADSVKGRFTISRDNAKNTVYLQMNSLKPEDTAVYYCAAVRWYVPGDVGYWGQGTQVTVSS”, the “polyreactivity (PSR sort gate)” value is reported as “low polyreactivity”.
With “QVQLVESGGGLVQAGGSLRLSCAASGIIFYYNAMGWYREAPGKEREFVASISSRGGSTYYADSVKGRFTISRDNSKNTVYLQMNSVKPEDTAVYYCAAAFDWRRQRYNYWGQGTQVTVTS” the “polyreactivity (PSR sort gate)” value was “high polyreactivity”.
For “QVQLVESGGGLVQAGGSLRLSCAASGRTFYLYTMGWYRQAPGKERELVAAISRGGRTYADSVKGRFTISRDNAKNTVYLQMNSLKPDDTAVYYCAAESVYHGWSYQHGKGDYWGQGTQVTVSS”, the “polyreactivity (PSR sort gate)” value was “low polyreactivity”.
With “QVQLVESGGGLVQAGGSLRLSCAASGRNFNQYGMGRYIPAPGKERELVAAIRSGDSTNYADSVKGRFTISRDNAKNTVYLQMNSLKPEDTAVYYCARDRPGDYAGYDYWGQGTQVNVSS” the “polyreactivity (PSR sort gate)” value was “low polyreactivity”.
For “QVQLVESGGGLVQAGGSLRLSCAASGSTFVVNAMGWYSLAPGKERELVAAITQDGDGTYYADSVKGRFTISRDNAKNTVYLQMNSLKPEDTAVYYCAAYPFSGPYDEFDYWRQGTQVTVSS”, the “polyreactivity (PSR sort gate)” value was “low polyreactivity”.
For “QVQLVESGGGLVQAGGSLRLSCAASGITFGYYARGGYRQAPGNERELVAAISRNGGSTYYADSVKGRFTISRDNAKNTVYLQMNSLKPEDTAVYYCNARGNQAVIGYEYWGQGTQVTVSS”, the “polyreactivity (PSR sort gate)” value was “high polyreactivity”.
With “QFQLVESGGGLVQAGSRLRLICAASGSTFKYYTMGWYRQAPGKERELVATIRGSGTTYADSVKGRFTISRDNAKNTVYLQMNSLKPEDTAVYYCARLPPADMDYWGQATQVTVSS” the “polyreactivity (PSR sort gate)” value was “low polyreactivity”.
With “QVQLVESGGGLLKAGGSLRLSCAASRITFYIYPIVWYRQAPGKERELVATISWSDGRTYYADSVKGRFTISRDNAEHTVYLQLYSLKPEDTAVYYCAADWWYYQFDYEYWGQGTPVTVSS” the “polyreactivity (PSR sort gate)” value was “low polyreactivity”.
With “QVQLVESGGGLVQAGGSLRLSCAASGLTFALYAMGWYRQAPGKERELVAAITGSGGSTYYADSVKGRFTISRDTAKNSVYLQMNSLKPEDTAVYYCNKLFYRWRIVDKYYYCGQGTQVTVSS” the “polyreactivity (PSR sort gate)” value was “high polyreactivity”.
For “QVQLVESGGGLVQAGGSLRLSCAASGSTFYYYAMGWYRQAPGKERELVAAITLRGTSTYYADSVKGRFTISRDNAKNTVYLQMNRLKPEDTAVYYCAVETYYSIFDIYDYWGQGTQVTVSS”, the “polyreactivity (PSR sort gate)” value was “low polyreactivity”.
For “QVQLVESGGGLVQAGGRLRISCAASGSTFKANAMGWYRQSPGKERELVASIRFSAGSTYYADSVKGRFTISRDTAKNTVYLEMNRLKPEDTAVYYCAAGRHVLKRRYDYWGQGTQVTVSS”, the “polyreactivity (PSR sort gate)” value was “low polyreactivity”.
With “QVQLVESGGGLVQAGGSLRLSCAASGRTFAKSAMGWSRQAPGKERELVAAIRWSGGSTYYADSVKARFTISRDNAKNTVYLQMNSLKPEDTAVYYCATERFLLGLGYDYWGQGTQVTVSS” the “polyreactivity (PSR sort gate)” value was “high polyreactivity”.
For “QVQLVESGGGLVQAGGSLRLSCAASGGTFRSNAMGWYRQAPGKERELVAASTNYADSVKGRFTISRDNAKNTVYLQMNSLKPEDTAVYYCAAGPTDSQSGMDYWGQGTQVTVSS”, the “polyreactivity (PSR sort gate)” value was “low polyreactivity”.
With “QVQLVESGGRLVQAVGSLRLSCAASGRTFEYYNMGWYRQEPGKEREFVAANTWGGGSTSYADSVKGRFTISRDNAKNTVYLQMNSLKPEDTAVYYCAADDVYYDDDYWGQGTQVTVSS” the “polyreactivity (PSR sort gate)” value was “high polyreactivity”.
In the case of “QVQLVESGGGLVQAGGSLRLSCAASGRTFANNAMGWYRQAPGKERELVAAISFSTVSTYYADSVKGRFTISRDNAKYTVYLQMNSLKPEDTAVYYCAARRLGYYRKVKELVYWGQGTQVTVSS”, the “polyreactivity (PSR sort gate)” value is reported as “high polyreactivity”.
For “QVHLVESGGGLVQAGGSLRLSCAASGFTFRRYAMGWDRQAPGKERELVASISSGGSTNYADSVKGRCTISRDNAKNTVYLQMNSLIPEDTAVYYCAVSYRSFRYYWERYYSWGQGTQVTVSS”, the “polyreactivity (PSR sort gate)” value was “high polyreactivity”.
For “QVQLVESGGGLVQAGGSLRLSCAASGRTFVRYTMGWYRQAPVKERELVATISYNGGRTYYADSVKGRFTISRDNAKNTVYLQMNSLKPEDTAVYYCATRLPKSSLHDYWGQGTQVTVSS”, the “polyreactivity (PSR sort gate)” value was “high polyreactivity”.
For “QVQLVQSGGGFVQAGGSLRVSCAASGRTFGVYAMGWYRQAPGKEREFVAAISYSGGRTYYADSVKGRFTISRDNAKNTVYLQMNSLKPEDTAVYSCNARAFPYYRRFDYWGQGTQVTVSS”, the “polyreactivity (PSR sort gate)” value was “high polyreactivity”.
In the case of “QVQLVESGGGLVQAGGSLRLSCAASGRTFGNNAMGWSRPAPGKERELVAAITASGGRTYYADSVKGRFTISRDNAKTTVYLQMNSLKPEDTAVYYCADGGPRVNGYGGYYWGQGTQVTVSS”, the “polyreactivity (PSR sort gate)” value is reported as “high polyreactivity”.
With “QVQLVDSGGGLVQAGGSLRLSCAASGRIFFANAMGWYRQAPGKERELVAAISWRGGSTYYADSVKGRFTISRDNAKNTVYLQKNSLKPEDTAVYYCAATSRGTDYWGQGTQVTLSS” the “polyreactivity (PSR sort gate)” value was “high polyreactivity”.
With “QVQLVESGGGLVQAGGSLRLSCAASGLIITAYAMGWYRQAPGKERELVAAITGSGGRTYYADSVKGRFTISRDNAKNTVYLQMNSLKPEDTAVYYCAADFPARGSSTSDYWGQGTQVTVSS” the “polyreactivity (PSR sort gate)” value was “high polyreactivity”.
With “QVQLVESGGGLVQAGGSLRLSCAASGITFDHYAMGWYRQAPGKERELVAAITSGGNTNYADSVKGRFTISRDNAKNTVYLQMNSLKPEDTAVYYCNARYDVWYYYWGQGTQVTVSS” the “polyreactivity (PSR sort gate)” value was “high polyreactivity”.
For “QVQLVESVGGFVQAGGSLRLSSAASGFIFRSYAMGSYRQAPGKERELVAVISRRGVNTHYADSVKGRFTISRDYAKYTVYLQMNSLKPEDTAVYDCAKGLTALGDYWGQGSQVTVSS”, the “polyreactivity (PSR sort gate)” value was “high polyreactivity”.
With “QVQLVESGGGLVQAGGSLRLSCAASGRTFSAYAMGWNRQAPGKEREMVAAISSTGRTKYADSVKGRFTISRDNAKNSVYLQMNSLKPEDTAVYYCAARGYYVSPYTYGYWGQGTQVTVSS” the “polyreactivity (PSR sort gate)” value was “high polyreactivity”.
In the case of “QVQLEESGGGLVQAGGSLRLSCAASGIIFILYTMGWYRQAPGKERELVATISSGGGSTFYADSVKGRFTISRDNAKNTVYLQMNSLKPEDTAVYYCAAEQLYYGERYYIWGYYYWGQGTQVTVSS”, the “polyreactivity (PSR sort gate)” value is reported as “low polyreactivity”.
With “QVQLVESGGGLVQAGGSLRLSCAASGSTFLFYAMGWYRQAPGKERELVAAISSSGTSTYYADSVKGRFTISRDNAKNTVYLQMNSLKPEDTAVYYCAAVDPYERYVYWGQGTQVTVSS” the “polyreactivity (PSR sort gate)” value was “low polyreactivity”.
In the case of “QVQLVESGGGLVQAGGSLRLSWAAYGRNFRPNTMGWYRQAPGKEREMVAAISRSGGSTYYADSVKARFTISRDNAKNTVYLQMNSLKPEDTAVYYCAKRYGGIVGVGAYKYEYWGQGTQVTVSS”, the “polyreactivity (PSR sort gate)” value is reported as “high polyreactivity”.
With “LVQLVESGGGLVQAGGSLRLSCAASGIIFRDNAMGWYRQAPGKERELVAAIDSSGGTTYADSVMGRFTISRDNAKNTVYLQMNSLKPEDTAVFYCATEVYWTVSYYGYDYYGGNYYYWGQGTQVTVSS” the “polyreactivity (PSR sort gate)” value was “low polyreactivity”.
With “QVQLVESGGGLVQAGGSLRLSCAASGSTLDIYAMGWYRQAPGKERELVAAITSGGSTNYADSVKGRFTISRDNAKTTVYLQLNSLKPEDTAVYSCNARYFRGYDYWGQGTQVSVSS” the “polyreactivity (PSR sort gate)” value was “high polyreactivity”.
For “QVQLVESGGGLVQAGGSLRLSCAASGFTLGRYAMGWYRQAPGKEREFVAAISRGGGSTNYADSVKGRFTISRDNAKNTVYLQMNSLKPEDTAVYYCAADDHTSGYGYWGQGTQVTVSS”, the “polyreactivity (PSR sort gate)” value was “high polyreactivity”.
For “QVQLVESGGGLVQAGGSLRISCAASGYTFGNYAMGWYRQAPGKERELVAAISWRGARTNYADSVKGRFTISRDNAKNTVYLQMNSLKPEDTAVYYCAAGYYYGYPPRDYWGQGTQVTVSS”, the “polyreactivity (PSR sort gate)” value was “high polyreactivity”.
In the case of “QVQLVESGGGLVQAGGSLRLSCADSGYTFVYNAMGWYRQPPGKEREFVAAITWSGTSTRYADSVKGRFTISRDNAKNTVYLQMNSLKPEDTAVYYCAALGSGVPRYYYWGQGTQVTVSS”, the “polyreactivity (PSR sort gate)” value is reported as “high polyreactivity”.
In the case of “QDQLVESGGGLVQAGGSLRLSCAASRSIFYGYATRSYRQEPGKESELVAAISYSGDRTYYADSVKGRFTISRDNAKNTVYLQMNSLKPEDTAVYYCAAESRGVGAYYYRGQGTQVTVSS”, the “polyreactivity (PSR sort gate)” value is reported as “high polyreactivity”.
For “QVQLVESGGGLVQAGGSLRLSCAASGGTFRPYAMGWYRQAPGKERELVATIRSSGGRTYYADSVKGRFTISRDNAKNTVYLQMISLKPEDTAVYSCAADRTRGYGNDYWGQGTQVTVSS”, the “polyreactivity (PSR sort gate)” value was “high polyreactivity”.
With “QVQLVESGGGLVQAGGSLRLSCAASGFTFNYYAMGWYRQAPGKERELVAAITWRSGRTSYADSVKGRFTISRDNAKNTVYLQMNSLKPEDTAVYYCAKYTIYYGLTRYGYWGQGTQVTVSS” the “polyreactivity (PSR sort gate)” value was “high polyreactivity”.
For “QVQLVETAGRLVQAGGSLRLSSAASGFTFYIYAMGWSRHAPGKERQLVAAISGGGSTYYADSVKGRFTISRDNAKNTVYLQMNSLKPEVTAVYYCAVFPAAIYHRRGTYDYWGQGTQVTVSS”, the “polyreactivity (PSR sort gate)” value was “high polyreactivity”.
With “QVQLVESGGGLVQAGGSLRLSCAASGLIFRRYAMGWYRQAPGKERELVAAITSSGGSTYYADSVKGRFTISRDNAKNTVYLQMNSLKPEDTAVYYCNAYYTGRSAPDSWGQGTQVTVSS” the “polyreactivity (PSR sort gate)” value was “high polyreactivity”.
In the case of “QVQLVESGGGLVQAGGSLRLSCAPSGRIFGVYAMGWYRQAPGKERELVATIRSSGTRTNYADSVKGRFTISRDNAKNTVYLQMNSLKPEDTAVYYCAAGGRPYKLDFTRSDYWGQGTQVTVSS”, the “polyreactivity (PSR sort gate)” value is reported as “low polyreactivity”.
For “QVQLVESGGGLVQAGGSLRLSCAASGRIFGGYAMGWYRQAPGKERELVAAITSAGGTNYADSVKGRFTISRDNAKNTVYLQMNSLKPEDTAVYYCAALRDRDITVYYDTGRMYYWGQGTQVTVSS”, the “polyreactivity (PSR sort gate)” value was “low polyreactivity”.
